Assay: soluble on expression in E. coli; label from the status in PepcDB or PDB records

Sequence	soluble on expression in E. coli
MNPNTVPTPARGAIRWEAHTCLPLLPNQDMSALLRYRDNGFHHVSVNVGMDMTAVGDVMQVIAGFRQWLIKHPENFMLAGTLADLQRARVQDKLAVSFDLEGSNMLLQDQAMVRLYADLGVRQMLLAYNLDNSCAGGCHGSGMGLTALGREFVGAINSAGIVMDCSHASKRASMEIIELSQRPVVFSHTNIKAVYDHPRTVDDEQIMACVESGGVIGLTGMGIFLGDPQASVEAFVRQIDYLAERAGTAHIGLGLDIELHPDDKDLAEGVNEDDWWPKEFYGGINGHRQLQPEALGQVAEALLRIGYDAAQINGIFGGNFMRVAQATWP	not soluble
MNQCKVMNDGYLEKRSNGLLQLWKKKRCVLSDEGLRLYGCKGDSGKEMRFEQMTTLDCVEYKRGLVYFTIVMNDGKEVDFRCQQEGTAWNAEIALALVRFKNRVAVQTGRNRHLSHLGSCGEGDVEL	not soluble
MNQWLKKKRESLGYTQESFAKEIGIAKTTYSSYEQGYRNPTVQTAKKMAKILQVPWTIFFDEEVLETYDF	not soluble
MNQYLAVTSNGMENLLVEELTKLGIENAKPVQAGVKFKATNEQIYRCCLWSRLASRFVRVLSEFTCNDDMDLYLSTSSINWVNQFHSSKRFVVDFNGTNREIRNSQYGAMKVKDGIVDCFEKKGLPRPNISKERPDIRVHVRLHKDKAILGVDMVGSGLHQRGYRPESGRAPLRETLAAAIIMRCGWDGHQPLLDPMCGSGTLLIEAAMMAANMAPGVKRKQWCFESLEDFEPDTWAEIKSEANVQARRGVKKVDAKFFGFDNDPKVLKVAQENARRAGVEELIEFAQGDVATITRLSGFENGVIVSNPPYGERLGTEPGLIALYTAFGGQLKAEFGGCKASIFSSSDELLSCLRMRADKQFKLNNGALPCHQKNYSIAERSADEVKGADTNTQIAPDFSNRLKKNIGKIGKWARKEKLDCYRIYDADLPEYNVAIDVYGDQIVIQEYAAPKNIPEEKAKRRLTDIIRATIQVTGVEANKVVLKVREKQKGRSQYQK	not soluble
MNRGSLYITATPIGNREDITLRAIDTLRSVDLIAAEDTRHSKKLLEHYGIKTPLLSLHEHNEAARATLLCEKLKQGLNVALISDAGTPLISDPGYRLVNAVREAGIEVVPIPGACAAIAALVASGLPTDRFIFEGFIPSKGEVRRKKLEDLKNQRRTIIFYESVHRIVNLIDLLNEIFGTERRATIARELTKKFETIHTATLAELKNWINENPVQEKGEFVVIVAGQTEKLTEINEEHQQLLTLLLSELSLKQAVSLATKISGLPRKKLYALALTIQQHLPHHRY	soluble
MNRIEHYHDWLRDAHAMEKQAESMLESMASRIDNYPELRARIEQHLSETKNQIVQLETILDRNDISRSVIKDSMSKMAALGQSIGGIFPSDEIVKGSISGYVFEQFEIACYTSLLAAAKNAGDTASIPTIEAILNEEKQMADWLIQNIPQTTEKFLIRSETDGVEAKK	soluble
MNRISTSSVNSSFSYSAPAEEAQNRVSSAPTNSSPPGTTTAVAQASEGQKKPGAVLSMQAQRLRQLCESSSYQYRQNALLAKSFDAQRLDINTQAGPSNSPHLNALNKLQQRDFKPAAGGLEIPFTPKSLLGGGKRVYQIGSSSRDVQVCPRGAGAALRQEIADKQLMVNHLTDELQDAIDEANQAEIANTSQQLRQARSDLAELQRRFAVLGNEDRRINQ	not soluble
MNRLERIIQLVSQKKKIDVNSLSEQLDVSKVTIRKDLDKLESKGLLRREHGYAVLNSGDDLNVRLSYNYNIKRRIAEKAAELVQDNDTIMIESGSTCALLAEVLCQTKRNIKVITNSCFIANYIRQYSSCQIILLGGYYQPNSEVTVGPLLKEMISLFHVNRVFVGTDGFNKDLGFMGKDMMRSEGVRYMADAAEEVVILTDSSKFSKTSLVHQLSLADVNRVITDQALDKQTQELLSASGLVLDFVSLEHHHHHH	not soluble
MNRSRLLLLGAEAVAQGAIDAGLSGVYAYPGTPSTEITEYIQRSAPARQSGIRSAWSANEKTAYEAALGMSYAGKRSLVCMKHVGLNVAADAFMNSAITGVNGGLVLAVADDPSMHSSQNEQDSRVYGRFAMVPVLEPASQQELYDAMFHAFELSEAVRLPVIMRMTTRLSHSRAGVELKASLEQNPLSAE	not soluble
MNRVYCTARSFRTSVKSNGWVHKWSRFKRWQEMQAAHVENVQEKQRNKNFIRLPTGLYITPERPDDLNPKKAPADMTRKDTGQLPMELLTWHTQMRYVDHSIDNIKRYRRYKKFQHMQYDQRVIPERLLFLGPDLAAAHFLVHRGAAVKFVGDDNWYKKDKWNRYSLPGRKVDNLFIEAIDASGTQIMFEGLENLENLQKLRLLRLANSEYVDDWCIGRIGGLLPNLEMLDLSGCHRISSKGLMGLKASKNLKFLRLEGLSGIRNLGKSALILEDLLPKLQILGMDYELSFRQIEAENRLLEQERVVLDGRGNAFVEDDNSRLFLVMSTSSDDKAVTDDHDNPIMTSTVRREIPKMDDAEFEEINALSGGKLRHLLVGSPSGYEWTETTERILEHEAELNLTDNVITDPKMLPRGKRPEFELPEHRSRLEDAKAQFLKEFGDFEENSDKEQLKSH	not soluble
MNSALDFAFPATFPVKSSSVGGHRIASPGFSSRLRLCSLPPSSSIKAESCLKRDVHRQRSSLESMFCYDKPIPEEIIEEPVGLSMSEREIGDNQRCTCCEAKGALLCSTCSGTGLYVDSIMESQGIIVKVRCLGCGGSGNIMCKLCGGRGHVGH	not soluble
MNSFKKFLNKKRVQNHFKKSGEGVRLSSGESSSQPSAHAGAAQGGQIDRVAAADIAAQAAFKRMQKNEPQQNAGKRRIQMIAKRELEEERRQVEDLNISGTSSLQQPDREQHLEHSSAISRVLYTSELLGEHHIRSKADLLEDIKNFLSDQISEADDENDKVIAAVLMLYSLNKKHPKETAIETICKYCQNILEHPGEDKYKSIRLGNKAFQERVASVVGGRAFLEAVGFTEKSEGEDKFLVFTKPSDVHLVEALEALKDGQAVPIKVARNLEIFKLKEGQKPKAPKLADDFYNLSTAELKAEQRNKEMQVERMLTLRTKEMRQKDEQMTNYRYKYTLIRVRLPGNLLMQGVFGCHEPFSAVRVFVASTLSDALSTSEFTLRDAASQLVEDESASLAQLSLAPAALLHVVFAENLSDYGQIVADEHIEIIQELEASD	not soluble
MNSGRPETMENLPALYTIFQGEVAMVTDYGAFIKIPGCRKQGLVHRTHMSSCRVDKPSEIVDVGDKVWVKLIGREMKNDRIKVSLSMKVVNQGTGKDLDPNNVIIE	soluble
MNSNRTPSQKVLARQEKIKAVALELFLTKGYQETSLSDIIKLSGGSYSNIYDGFKSKEGLFFEILDDICKKHFHLIYSKTQEIKNGTLKEILTSFGLAFIEIFNQPEAVAFGKIIYSQVYDKDRHLANWIENNQQNFSYNILMGFFKQQNNSYMKKNAEKLAVLFCTMLKEPYHHLNVLINAPLKNKKEQKEHVEFVVNVFLNGINSSKA	soluble
MNSPDRFRLTSCDVTPDRTGMFTAIWTCYGRLAPGWRVVFGIESGTDRLEIEAVADAGVCAPLPDGVADAWLICNGLLIAVLTPELGARLTGGSGYLRFSSSPPHDAVSSTPAHVHRAGIPPRG	not soluble
MNSRIMFIGGVPGVGKTSISGYIARNTDIDIVLSSDYLREFLRPFAPQESHLETSVYDAWKFYGDMSDDNIIRGYLDQARPIMGGINRVIARALANGEDLIIESLYFVPDMMDEMVLKNAFLAYVYIDDPDLHRSRLEDRINYTHRNSPGSRLAAHLKEYRTIMDYSMDMARGRGIGLYSTDDYALARQRLLDDFRKFVDRR	not soluble
MNSVGEACTDMKREYDQCFNRWFAEKFLKGDSSGDPCTDLFKRYQQCVQKAIKEKEIPIEGLEFMGHGKEKPENSSLEHHHHHH	not soluble
MNTFVFLPLAFFVLLESFEAQEPPGPTARLNMLDNYMKRLNLTDIHFSDPGGIVKVDTVVNKYQPLTEEEIIRKMKKTVNDTAYDIANGKDPDLIEKLDKKTVQLPKPIRSRPQF	not soluble
MNTGFANPSAKPDDPTDPRARRDHGGGLDGAMRRYGGQRADWIDLSTGINPLPYPVGTLLPEDWTALPDHGAFGELIRAARAFWHLPEAAAVLPAPGASALIARIPALADPARVRITQPTYNEHAAAFTAHGWQVVADGPAEARVIVHPNNPDGRIWSEAEAEGALCVIDESFGDVAPETSLAHLAARPGTVVLKSFGKFWGLAGLRLGFAVALPETIARLNDLTGPWAVSGPALRIGTRALSDTAWAEETRIRLAQEAARLDTLMSAGGVQVLGGTDLFRLYQVDDAAAWQDRLARARIWSRIFPYSDRFLRLGLPPAEGWDRLESAL	not soluble
MNTPHPSAPVLVAVANPTIHPEALHIVAATGRECIDTTDPREISRHAHRVAAMLVDATTAPHMASLPPNTRVMYLEPEPGPIDYEKAMKSGAELAVIVPAQSPELLKALGRRDVAPRAGKYPVIAVIGAAGGAGTSTLCAALAADYREALLIDTEHFSGGIDLLLGKEDDPGIRWDDVPDSGEKVPASELLASLPCVDPNVRILAATRDSVTHVAEQQLRGVVESVRGTCPIIIDVQRHHVLFESCVDLADLVVLLVPAEIRSVAAAAQLVPWLRRRKVDVVGVLRERAWASVDREEVARVTGADIVATVPTVKGLPREVELGGMATIPRALRRPLAQLRSHIDG	not soluble
MNTVRSEKDSMGAIDVPADKLWGAQTQRSLEHFRISTEKMPTSLIHALALTKRAAAKVNEDLGLLSEEKASAIRQAADEVLAGQHDDEFPLAIWQTGSGTQSNMNMNEVLANRASELLGGVRGMERKVHPNDDVNKSQSSNDVFPTAMHVAALLALRKQLIPQLKTLTQTLNEKSRAFADIVKIGRTHLQDATPLTLGQEISGWVAMLEHNLKHIEYSLPHVAELALGGTAVGTGLNTHPEYARRVADELAVITCAPFVTAPNKFEALATCDALVQAHGALKGLAASLMKIANDVRWLASGPRCGIGEISIPENEPGSSIMPGKVNPTQCEALTMLCCQVMGNDVAINMGGASGNFELNVFRPMVIHNFLQSVRLLADGMESFNKHCAVGIEPNRERINQLLNESLMLVTALNTHIGYDKAAEIAKKAHKEGLTLKAAALALGYLSEAEFDSWVRPEQMVGSMKAGRHHHHH	soluble
MNVASRVVVNADRVKGTINRNIYGHFSEHLGRCIYEGLWVGEDSPIPNTNGIRNDVLEALKQMKIPVLRWPGGCFADEYHWKDGVGPREKRKRMVNTHWGGVIENNHFGTHEFMMLCELLGCEPYISGNVGSGTVQEMSEWVEYITFDGESPMANWRRENGREKPWRIKYWGVGNQNWGCGGNMRAEYYADLYRQFQTYLRNYGDNKLHKIACGANTADYHWTEVLMKQAAPFMHGLSLHYYTVPGPWEKKGPATGFTTDEWWVTLKKALFMDRLVTKHSAIMDVYDPDKRIDLIVDEWGTWYDVEPGTNPGFLYQQNSIRDALVAGATLHIFHRHCDRVRMANIAQLVNVLQSVILTEGERMLLTPTYHVFNMFKVHQDAELLDTWESVERTGPEGELPKVSVSASRAADGKIHISLCNLDFETGASVDIELRGLNGGVSATGTTLTSGRIDGHNTFDEPERVKPAPFRDFKLEGGHLNASLPPMSVTVLELTAG	soluble
MNVCRLYGEELQKSQSNTFEDYFNRSEVTYRDGGEERTLSVLYLRHFEAALLDWLPYESDPLFTANGRDIHLRDIIALVCLWKNPAYRQRKRVYIHDEEELRRYFAEVDAKTLQALVSEWAETGECRLPERSA	not soluble
MNVFKTQTLLCPSGVHSRPEDHDETPFLCSKAQSVTVVAFLVARLLATLATHQMTSHTEGLRKGGGRKDTQLMKGQCSAIKVIFWPGCLPQPRMHSRLHIRSINKGGQLRPTGCNK	soluble
